Measured values reported in publication PMC8027542.

Tests used:
CD14 = CD14 (UniProt P08571); assay: SPR; TLR2 or CD14 (ligands) immobilised on a CM5 chip; different SIC concentrations as analyte; 1:1 Langmuir fit
TLR2 = TLR2 (UniProt O60603); assay: as above
Chain of UniProt O60603 (O60603 21-784): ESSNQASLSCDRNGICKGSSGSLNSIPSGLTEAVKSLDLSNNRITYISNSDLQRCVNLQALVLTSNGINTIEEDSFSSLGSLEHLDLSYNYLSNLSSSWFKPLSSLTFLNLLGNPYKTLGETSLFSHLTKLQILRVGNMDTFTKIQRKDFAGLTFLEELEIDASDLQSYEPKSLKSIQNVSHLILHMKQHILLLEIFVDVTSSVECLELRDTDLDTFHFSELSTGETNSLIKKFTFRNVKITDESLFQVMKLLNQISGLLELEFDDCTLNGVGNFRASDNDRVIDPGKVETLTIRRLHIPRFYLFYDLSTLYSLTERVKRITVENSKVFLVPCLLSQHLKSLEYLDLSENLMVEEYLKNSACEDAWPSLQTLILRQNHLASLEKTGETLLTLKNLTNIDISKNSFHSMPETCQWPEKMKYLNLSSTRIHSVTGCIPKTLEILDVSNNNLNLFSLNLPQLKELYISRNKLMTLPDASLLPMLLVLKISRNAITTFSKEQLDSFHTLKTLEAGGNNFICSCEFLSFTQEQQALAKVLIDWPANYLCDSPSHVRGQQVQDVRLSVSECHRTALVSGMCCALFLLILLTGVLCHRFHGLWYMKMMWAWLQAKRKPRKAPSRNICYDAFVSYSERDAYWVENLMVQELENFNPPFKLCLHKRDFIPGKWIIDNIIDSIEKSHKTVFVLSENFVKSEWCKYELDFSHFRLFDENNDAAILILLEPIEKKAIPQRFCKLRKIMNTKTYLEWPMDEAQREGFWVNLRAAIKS

Chain of UniProt P08571 (P08571 20-345): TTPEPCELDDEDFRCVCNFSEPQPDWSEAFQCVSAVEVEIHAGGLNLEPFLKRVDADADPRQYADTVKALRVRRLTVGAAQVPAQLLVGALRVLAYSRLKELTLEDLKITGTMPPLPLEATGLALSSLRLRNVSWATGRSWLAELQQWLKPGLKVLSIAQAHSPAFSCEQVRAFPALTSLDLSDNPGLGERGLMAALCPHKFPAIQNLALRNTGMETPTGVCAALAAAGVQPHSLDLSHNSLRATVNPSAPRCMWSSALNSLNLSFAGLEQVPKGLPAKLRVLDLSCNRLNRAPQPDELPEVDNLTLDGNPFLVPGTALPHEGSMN

Streptococcal inhibitor of complement (SIC) from S. pyogenes M1 strain AP1 (natural protein)
Kd (CD14): 2520 nM
Kd (TLR2): 12.9 µM
